Measurements reported in IntAct's records for PubMed 32172343.

B1: Phospholipid-transporting ATPase VB (Homo sapiens), O94823-1 (parent)
chain: MALSVDSSWHRWQWRVRDGFPHCPSETTPLLSPEKGRQSYNLTQQRVVFPNNSIFHQDWEEVSRRYPGNRTCTTKYTLFTFLPRNLFEQFHRWANLYFLFLVILNWMPSMEVFHREITMLPLAIVLFVIMIKDGMEDFKRHRFDKAINCSNIRIYERKEQTYVQKCWKDVRVGDFIQMKCNEIVPADILLLFSSDPNGICHLETASLDGETNLKQRCVVKGFSQQEVQFEPELFHNTIVCEKPNNHLNKFKGYMEHPDQTRTGFGCESLLLRGCTIRNTEMAVGIVIYAGHETKAMLNNSGPRYKRSKIERRMNIDIFFCIGILILMCLIGAVGHSIWNGTFEEHPPFDVPDANGSFLPSALGGFYMFLTMIILLQVLIPISLYVSIELVKLGQVFFLSNDLDLYDEETDLSIQCRALNIAEDLGQIQYIFSDKTGTLTENKMVFRRCTIMGSEYSHQENAKRLETPKELDSDGEEWTQYQCLSFSARWAQDPATMRSQKGAQPLRRSQSARVPIQGHYRQRSMGHRESSQPPVAFSSSIEKDVTPDKNLLTKVRDAALWLETLSDSRPAKASLSTTSSIADFFLALTICNSVMVSTTTEPRQRVTIKPSSKALGTSLEKIQQLFQKLKLLSLSQSFSSTAPSDTDLGESLGANVATTDSDERDDASVCSGGDSTDDGGYRSSMWDQGDILESGSGTSLEEALEAPATDLARPEFCYEAESPDEAALVHAAHAYSFTLVSRTPEQVTVRLPQGTCLTFSLLCTLGFDSVRKRMSVVVRHPLTGEIVVYTKGADSVIMDLLEDPACVPDINMEKKLRKIRARTQKHLDLYARDGLRTLCIAKKVVSEEDFRRWASFRREAEASLDNRDELLMETAQHLENQLTLLGATGIEDRLQEGVPDTIATLREAGIQLWVLTGDKQETAVNIAHSCRLLNQTDTVYTINTENQETCESILNCALEELKQFRELQKPDRKLFGFRLPSKTPSITSEAVVPEAGLVIDGKTLNAIFQGKLEKKFLELTQYCRSVLCCRSTPLQKSMIVKLVRDKLRVMTLSIGDGANDVSMIQAADIGIGISGQEGMQAVMSSDFAITRFKHLKKLLLVHGHWCYSRLARMVVYYLYKNVCYVNLLFWYQFFCGFSSSTMIDYWQMIFFNLFFTSLPPLVFGVLDKDISAETLLALPELYKSGQNSECYNLSTFWISMVDAFYQSLICFFIPYLAYKGSDIDVFTFGTPINTISLTTILLHQAMEMKTWTIFHGVVLLGSFLMYFLVSLLYNATCVICNSPTNPYWVMEGQLSNPTFYLVCFLTPVVALLPRYFFLSLQGTCGKSLISKAQKIDKLPPDKRNLEIQSWRSRQRPAPVPEVARPTHHPVSSITGQDFSASTPKSSNPPKRKHVEESVLHEQRCGTECMRDDSCSGDSSAQLSSGEHLLGPNRIMAYSRGQTDMCRCSKRSSHRRSQSSLTI
partner: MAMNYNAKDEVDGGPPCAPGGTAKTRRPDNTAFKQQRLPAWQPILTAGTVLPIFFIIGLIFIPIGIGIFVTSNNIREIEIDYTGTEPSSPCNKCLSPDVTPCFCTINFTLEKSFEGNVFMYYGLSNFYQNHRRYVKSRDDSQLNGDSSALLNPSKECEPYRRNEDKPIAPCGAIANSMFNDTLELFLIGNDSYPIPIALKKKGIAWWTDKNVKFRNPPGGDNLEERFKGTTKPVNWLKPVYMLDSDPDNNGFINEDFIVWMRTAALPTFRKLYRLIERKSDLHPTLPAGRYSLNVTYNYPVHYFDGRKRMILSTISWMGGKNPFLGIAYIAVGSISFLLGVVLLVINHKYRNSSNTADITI

Variants of: B1
Settings: with TMEM30A

Variant | effect of a mutation on the interaction
V48L | with no effect
E210A | with no effect
E993A | with no effect
I1038T | with no effect
G671R;N865K | with no effect
